Experimental data reported in patent US20250243290A1.
Several values for one entry are separate records, joined by “and”; a condition that tells them apart may be missing. Equal entries are not always repeated. Where two headings read alike, the source gives them in different places.

Assays:
Assay in all cases: peptide-array ELISA [Con't]
[1] = target: CAV2…2…
…22SK2CQA2TREQNRI2T2RPC = target: …22SK2CQA2TREQNRI2T2RPC
CLSKQEG2RL2…2TREQNRIC = target: CLSKQEG2RL2…2TREQNRIC
[2] = target: …2…2…
CNASMDAV2…2TSTSPTRC = target: CNASMDAV2…2TSTSPTRC
[3] = target: 2…
CQTAQM22SK2…2TSTSPTRC = target: CQTAQM22SK2…2TSTSPTRC
…2LS2GCLSKQEG2RL2APLRKC = target: …2LS2GCLSKQEG2RL2APLRKC
VPE2LS2…2R = target: VPE2LS2…2R
CNASMDAV2…2TREQNRI2T2RPC = target: CNASMDAV2…2TREQNRI2T2RPC
CQA2TREQNRI2T2…2RLC = target: CQA2TREQNRI2T2…2RLC
EQNRI2…2RL = target: EQNRI2…2RL
…2TSTSPTRC = target: …2TSTSPTRC
…2TSTSPTRC, sequence (peptide, as listed by the source): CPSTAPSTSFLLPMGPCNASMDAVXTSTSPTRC

[4] = target: C22SK2…2CQA2TREQNRI2T2RPC
[5] = target: …2RLCAPLRK2…
…2TREQNRI2T2RPC = target: …2TREQNRI2T2RPC
[6] = target: STDI2…
STDI2…, sequence (peptide, as listed by the source): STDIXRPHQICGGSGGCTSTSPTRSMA

[7] = target: CQA2TREQNRI2T2RPCQA2TREQNRI2T2RPC
2LS2…2…2 = target: 2LS2…2…2
…2R [8] = target: …2R
CAPLRK2…2TSTSPTRC = target: CAPLRK2…2TSTSPTRC
[9] = target: CLSKQEG2RL2APLRKCQA2TREQNRI2T2RPC
[10] = target: S2…2…
QEG2…2APGTFSN = target: QEG2…2APGTFSN
QNRI2…2R = target: QNRI2…2R
CAPEPGST2…2TSTSPTRC = target: CAPEPGST2…2TSTSPTRC
[11] = target: LS2…2…
…2TREQNRIC = target: …2TREQNRIC
VPE2LS2…2RPGW = target: VPE2LS2…2RPGW
…2GGSGGQA2TREQNRIC = target: …2GGSGGQA2TREQNRIC
[12] = target: 2…; remark: listed apart in the source
[13] = target: CSR2…2TRCAPLRK2…
[14] = target: CDQVETQA2…2…
2…2R = target: 2…2R
[15] = target: CG2RL2APLRK2RPGFCQA2TREQNRI2T2RPC
[16] = target: WNWVPE2…
WNWVPE2…, sequence (peptide, as listed by the source): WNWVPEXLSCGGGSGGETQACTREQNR

[17] = target: VV2…
[18] = target: CAPLRK2…2…
LSCGSR2…2T = target: LSCGSR2…2T
[19] = target: ETSDVV2…
[20] = target: VPE2LSCGSR2…
[21] = target: C2…2…
TREQNRI2…2R = target: TREQNRI2…2R
…2SK2SPGQH = target: …2SK2SPGQH
…2R [22] = target: …2R; remark: listed apart in the source
[23] = target: CAPEPGST2…2…
TREQNRI2…2RL = target: TREQNRI2…2RL
REQNRI2…2R = target: REQNRI2…2R
[24] = target: CQA2TREQNRI2T2RPCAPLRK2…
S2…2TREQNRIC = target: S2…2TREQNRIC
[25] = target: TETSDVV2…
[26] = target: …2TSCAPLRK2…

Substance: agonistic TNFR2 antibody MR2-1
- Raw luminescence data [1]: 171
- Raw luminescence data (…22SK2CQA2TREQNRI2T2RPC): 158
- Raw luminescence data (CLSKQEG2RL2…2TREQNRIC): 160
- Raw luminescence data [2]: 160
- Raw luminescence data (CNASMDAV2…2TSTSPTRC): 164
- Raw luminescence data [3]: 170
- Raw luminescence data (CQTAQM22SK2…2TSTSPTRC): 164
- Raw luminescence data (…2LS2GCLSKQEG2RL2APLRKC): 164
- Raw luminescence data (VPE2LS2…2R): 170
- Raw luminescence data (CNASMDAV2…2TREQNRI2T2RPC): 157
- Raw luminescence data (CQA2TREQNRI2T2…2RLC): 171
- Raw luminescence data (EQNRI2…2RL): 159
- Raw luminescence data (…2TSTSPTRC): 159
- Raw luminescence data [4]: 158
- Raw luminescence data [5]: 165
- Raw luminescence data (…2TREQNRI2T2RPC): 163
- Raw luminescence data [6]: 159
- Raw luminescence data [7]: 166
- Raw luminescence data (2LS2…2…2): 167
- Raw luminescence data (…2R [8]): 160
- Raw luminescence data (CAPLRK2…2TSTSPTRC): 167
- Raw luminescence data [9]: 158
- Raw luminescence data [10]: 171
- Raw luminescence data (QEG2…2APGTFSN): 167
- Raw luminescence data (QNRI2…2R): 170
- Raw luminescence data (CAPEPGST2…2TSTSPTRC): 213
- Raw luminescence data [11]: 198
- Raw luminescence data (…2TREQNRIC): 207 and 192
- Raw luminescence data (VPE2LS2…2RPGW): 222
- Raw luminescence data (…2GGSGGQA2TREQNRIC): 206
- Raw luminescence data [12]: 208
- Raw luminescence data [13]: 210
- Raw luminescence data [14]: 201
- Raw luminescence data (2…2R): 223
- Raw luminescence data [15]: 215
- Raw luminescence data [16]: 220
- Raw luminescence data [17]: 209
- Raw luminescence data [18]: 223
- Raw luminescence data (LSCGSR2…2T): 194
- Raw luminescence data [19]: 197
- Raw luminescence data [20]: 194
- Raw luminescence data [21]: 194
- Raw luminescence data (TREQNRI2…2R): 205
- Raw luminescence data (…2SK2SPGQH): 194
- Raw luminescence data (…2R [22]): 200
- Raw luminescence data [23]: 196
- Raw luminescence data (TREQNRI2…2RL): 206
- Raw luminescence data (REQNRI2…2R): 210
- Raw luminescence data [24]: 204
- Raw luminescence data (S2…2TREQNRIC): 191
- Raw luminescence data [25]: 208
- Raw luminescence data [26]: 197
